Data reported in US20110059084A1 (BIOTEST, published 2011).

Target: T1, CD4 on primary human peripheral lymphocytes (human, UniProt P01730 26-458)
T1 construct: whole, on cells; also called human lymphocytes
Assay: flow cytometry on human PBMCs (CD3+ lymphocytes), MFI over serial dilutions of BT061
Method: Human PBMCs were isolated by density gradient centrifugation and stained with FITC-labelled anti-CD3 antibody (345763; Becton/Dickinson) and serial dilutions of BT061. BT061 binding was detected with an phycoerythrin labelled human IgG antibody (109-116-098; Jackson, Immunoresearch). By flow cytometric analysis the mean fluorescence intensity of CD3+ BT061 binding lymphocytes was determined.

- EC50: < 0.01 µg/mL
B1: humanized B-F5 H37L/L4M IgG1 (BT061) (antibody, V domains shown)
VH: EEQLVESGGGLVKPGGSLRLSCAASGFSFSDCRMYWLRQAPGKGLEWIGVISVKSENYGANYAESVRGRFTISRDDSKNTVYLQMNSLKTEDTAVYYCSASYYRYDVGAWFAYWGQGTLVTVSS
VL: DIVMTQSPDSLAVSLGERATINCRASKSVSTSGYSYIYWYQQKPGQPPKLLIYLASILESGVPDRFSGSGSGTDFTLTISSLQAEDVAVYYCQHSRELPWTFGQGTKVEIK
notes: also called hB-F5; humanised B-F5
